Target: bromodomain of CREB (cyclic-AMP response element binding) binding protein (UniProt Q92793-1)
Assay: AlphaScreen or HTRF
Details: both partners purified

Sequence of bromodomain of CREB (cyclic-AMP response element binding) binding protein (Q92793 1081-1197): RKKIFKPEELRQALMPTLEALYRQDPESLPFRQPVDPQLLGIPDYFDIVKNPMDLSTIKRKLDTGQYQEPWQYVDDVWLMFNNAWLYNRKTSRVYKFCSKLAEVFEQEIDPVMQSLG

## ALREIRRYQKSTELLIRKLK (K(Ac) at peptide position 10 (H3K56); C-terminal K(Biotin)) [H3K56(Ac) peptide]
  binding result: binds
